The source of these data is patent US20100093076A1, “SOLUBLE IL-27 RECEPTOR” (priority 2006, published 2010).

This assay concerns the target T1, mouse ligand (single-chain IL27: EBI3 linked to IL-27 p28) (Mus musculus, UniProt O35228+Q8K3I6).
T1 construct: purchased R&D Systems
T1 sequence (O35228+Q8K3I6 with tags, fused parts or gaps): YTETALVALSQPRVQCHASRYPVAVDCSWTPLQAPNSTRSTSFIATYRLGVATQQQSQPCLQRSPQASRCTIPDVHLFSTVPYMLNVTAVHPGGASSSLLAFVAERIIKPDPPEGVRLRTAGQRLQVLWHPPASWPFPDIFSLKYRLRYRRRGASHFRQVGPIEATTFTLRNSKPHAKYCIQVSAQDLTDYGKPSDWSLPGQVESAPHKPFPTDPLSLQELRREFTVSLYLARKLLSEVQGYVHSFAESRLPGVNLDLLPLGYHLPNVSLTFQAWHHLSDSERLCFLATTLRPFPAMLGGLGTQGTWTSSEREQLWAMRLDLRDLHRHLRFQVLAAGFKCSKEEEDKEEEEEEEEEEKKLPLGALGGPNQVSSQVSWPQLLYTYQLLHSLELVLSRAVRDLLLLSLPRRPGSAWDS
Briefly: Surface plasmon resonance (BIACORE 3000) kinetic rate and affinity constants. The assay is classed as binding. To be noted: SPR. The method, then:
Kinetic rate and affinity constant values for the mouse (IL27RAm(mFc1), Example 1) and human (IL27RA-Fc5, Example 2) soluble receptors were obtained by surface plasmon resonance (SPR) using an automated instrument (BIACORE 3000; Biacore International AB, Uppsala, Sweden). The mouse soluble receptor was tested against mouse ligand (lot A1418F), and the human soluble receptor was tested against both mouse (A1426F) and human (A1534F) ligands. For determination of the kinetic rate constants for the receptor-ligand interactions, the gp130 molecule was not included as part of the receptor complex.
The IL27 ligands used in this study were single-chain molecules comprising EBI3 connected by its C-terminus to the N-terminus of IL-27 p28 via a polypeptide linker. (R&D Systems) Each of the ligands included an amino-terminal peptide tag.
For the mouse IL27RA study, the soluble receptor was captured onto the chip surface by an isotype-specific anti-mouse Fc antibody (obtained from Jackson ImmunoResearch Laboratories, Inc., West Grove, Pa.) covalently immobilized to the chip (BIACORE CM5 chip) using the standard amine coupling protocol specified by the instrument manufacturer. For the human IL27RA studies, the soluble receptor was directly and covalently immobilized to the chip via the amine coupling protocol. In all studies, ligand was injected over the active (receptor-bound) surface at varying concentrations to obtain a series of binding curves.
Experimental conditions were optimized for determination of kinetic rate constant values. The molecular densities of the soluble receptor protein loaded onto the chip surface were targeted to obtain maximum IL27 binding levels (Rmax) of ≦20 RU. The analyte (ligand) was injected over the receptor surface at a flow rate of […] at a concentration range of approximately 0.05 to 10 nM, allowing for an association phase of 3 minutes and a dissociation phase of 10 minutes. […]
All data were assessed using software provided with the instrument (BIACORE Evaluation software v. 3.2). […]

B1: IL-27RAm(mFc1): Extracellular domain of mouse IL27RA fused to a wild type BALB/c mouse gamma2a constant region Fc tag (protein)
chain: MNRLERVALARLETPRLEGLLELELESLEMSLELELEGTRPRHGSPRGPRLEQCYSVGPRLEGILENCSWGLPRLEGDLEGLTPRPRVLEYHQSQKYHPRNRVWGLVKVPRSKQSWVTIPRRGLQFTMADKLELEIWGTQKGRPRLEWSSVSVASNLEGLTQMKPRDTPRQIFSQVASPISGLGLATLEGLATVQWAPRPRVWPRPRQKALETCQFRYKGLCQAGLAWTRLEGLPRQLEKTDGLETPRVGLMQNLEGLPRGTCYQVSGRCQVGLNGYPRWGGLWSSPRLESFQTPRFLEDPRGLDVWVSGTVCGLTSGKRAALELEVWKDPRRPRCVQVTYTVWFGAGDITTTQGLGLVPRCCKSPRVPRAWMGLWAVVSPRGNSTSWVPRPRTNLESLEVCLEAPRGLSAPRCDVGVSSADGSPRGIKVTWKQGTARGSPRLEGLYVVASPWAQDGDSLEDKLENWTRLEPRPRGNLESTLELEPRGGLFKGGVPRYRITVTAVYSGGLEAAAPRSVWGFRGLGLLEVPRLEAGPRAVWRLEPRDDPRPRGTPRVVALAWGGLVPRRHQLERGQATHYTFCIQSRGLESTVCRNVSSQTQTATLEPRNLEHSGSFKLEWVTVSTVALAGQGPRPRGPRDLESLEHLEPRDNRIRWKALEPRWFLESLEWGLELELEMGCGLESLEASTRCLEQARCLEHWRHKLELEPRQWIWGLRVPRDPRANSNSGQPRYIKGLVSLEPRQPRPRKDGPRILEGLVGLGLVGLLEQPRVVGLSPRKASAPRIYSGYGLKHFLEPRTPRGLGLLEGLELEV
modifications: left off: a dimerising Fc or GST
notes: Extracellular domain of mouse IL27RA fused to a wild type BALB/c mouse gamma2a constant region Fc tag
By Kd is commonly meant the equilibrium constant for the complex coming apart. A higher Kd goes with a looser complex. Under “1:1 binding model”, B1 gave a ka of 1e+07 M⁻¹ s⁻¹ and a kd of 0.0012 s⁻¹. Binding (Kd=kd/ka) was characterised by a dissociation constant (Kd) of 0.12 nM.
